In article PMC12809855, “Biochemical and Mechanistic Insights into O2 Scavenging and Stability of the Soluble Hydrogenase from Hydrogenophaga pseudoflava” (ACS Omega, 2025):

Substrate: NC(=O)c1ccc[n+]([C@@H]2O[C@H](COP(=O)(O)OP(=O)(O)OC[C@H]3O[C@@H](n4cnc5c(N)ncnc54)[C@H](O)[C@@H]3O)[C@@H](O)[C@H]2O)c1
Experiment: purified protein
Assay type: biochemical, Hydrogenophaga pseudoflava
Conditions: H2-saturated buffer, 50 mM Tris-HCl, no additional salt, pH 7, 30 °C, 1 mM TCEP, 1 μM FMN, kcat apparent

B1: HpSH (soluble hydrogenase from Hydrogenophaga pseudoflava, HoxFUYH) (Hydrogenophaga pseudoflava) (protein)
chain: MTAFDQPSALHAADAVLARWQHDPHALVQVLRETQAQTHWLPRELLAHIAAALRLTTAHVEGVASFYRFFHLRPVGRVHVLFSDNITDRMAGSDALMARLCARLGVAPGQVDAQGRFCVDRCSCTGLCDQGPALLVNHHQVVTRLDAGRVDQLAERLLAGVPPEDWPADWFAVEDHVRRADVLLQGLPADAPSLPAVLSRTPAELLAEVERSGLRGRGGAGFPTARKWRACAEADAPDGQRCVVCNADEGEPGTFKDRVLLGRHADELFDGMTLAARAIGAQTGLVYLRGEYRFLLPQLEAVLQRRRANGLLGRNAGGVAGFDFDIAIHLGAGAYVCGEESALIESLEGQRGTPRIRPPFPVQRGYLGRPTVVNNVETLVAVAHIARRGGAWWAGLGTPESTGTKIHSVSGDCERPGLYEYPLGTPLAQILADCGARNAQAVQVGGPSGSCVPASGFHRAIAFEDLPSAGALMVFDQTRDLFEVARHFARFFAHESCGLCTPCRVGTELVVRRLDKLAHERGAGRGSAFDIARLQELDALLHSGTHCGLGVSACNPLRDTLAHFGQAYAQRSTAAQFQPGIDLDAELSSARRATGRQDRGAHLNTEHGA
notes: full-length HoxFUYH heterotetramer, N-terminal Strep-tag on HoxF, coexpressed with endopeptidase HoxW (HoxH C-terminally processed), homologous expression in H. pseudoflava from pOCEx1; no HoxI; preparation has excess HoxF; with NAD-reducing hydrogenase HoxS subunit gamma; NAD-reducing hydrogenase HoxS subunit delta; NAD-reducing hydrogenase HoxS subunit beta
With B1 the Km was 400 ± 140 µM and the kcat was 137 ± 20 s⁻¹.
